Target: human FcγRIIA (R131 variant) expressed on Jurkat cells (UniProt P12318)
Assay: FLIM
Settings: Jurkat cells co-expressing FcγRIIA and Mac-1; donor anti-FcγRIIA IV.3 AF488 + acceptor anti-Mac-1 (CD11b) ICRF44 AF568; n = 3 experiments

Chain of UniProt P12318 (P12318 34-217, change not shown): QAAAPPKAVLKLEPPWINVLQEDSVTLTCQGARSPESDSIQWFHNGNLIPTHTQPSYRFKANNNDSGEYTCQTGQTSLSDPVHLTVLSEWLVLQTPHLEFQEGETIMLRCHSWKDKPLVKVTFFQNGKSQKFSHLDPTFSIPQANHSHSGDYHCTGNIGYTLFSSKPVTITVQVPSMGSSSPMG

Substance: human Mac-1 (CD11b/CD18), wild type, expressed on Jurkat cells (from UniProt P11215;P05107) E253-R261 (… replaced with … of CD11a)
- other: FcγRIIA fluorescence lifetime tm (donor + acceptor): 1830 ps

Source: publication PMC6265255
